Source: patent publication US6680176B2, “Identification of candidate ligands which modulate antigen presenting cells” (The United States of America, as represented by the …, priority 1999, dated 2004)

System: CD8 killer T cells
Assay: Replacement of T help by soluble factors in CD4 depleted anti-H-Y killer cultures (JAM Test)
Assay type: cell-based, mouse
Details: CD4 depleted primed B6 female spleen cells, male stimulators
Excerpt: Two weeks to 1 year after in vivo priming, spleens were removed from the responders and depleted for CD4 T cells using the Midi MACs system (Miltenyi Biotec, Germany) with MACS magnetic beads conjugated to the anti-mouse CD4 monoclonal antibody, GK1.5. By FACS analysis with the non-competing anti-CD4 antibody RM4-4 (Pharmingen, San Diego, Calif.), the depleted populations routinely contained less than 0.2% CD4 cells.
Two weeks or later after the last in vivo immunization, 4×10^6 spleen cells were restimulated in 2 ml cultures with 2×10^6 irradiated B6 male spleen cells or 1.5×10^5 of the various populations of dendritic cells, with or with out an exogenous source of mouse IL-2, (10% Rat Con A supernatant, from which the ConA has been removed, Collaborative Biomedical Products, Bedford Mass.). Six days later the cultures were tested for their ability to kill male and female targets using the JAM Test. (55).

B1: IL-12: cytokine IL-12 added to the cultures (protein, UniProt P43431 23-215; P43432 23-335, looked up)
Interleukin-12 subunit alpha: RVIPVSGPARCLSQSRNLLKTTDDMVKTAREKLKHYSCTAEDIDHEDITRDQTSTLKTCLPLELHKNESCLATRETSSTTRGSCLPPQKTSLMMTLCLGSIYEDLKMYQTEFQAINAALQNHNHQQIILDKGMLVAIDELMQSLNHNGETLRQKPPVGEADPYRVKMKLCILLHAFSTRVVTINRVMGYLSSA
Interleukin-12 subunit beta: MWELEKDVYVVEVDWTPDAPGETVNLTCDTPEEDDITWTSDQRHGVIGSGKTLTITVKEFLDAGQYTCHKGGETLSHSHLLLHKKENGIWSTEILKNFKNKTFLKCEAPNYSGRFTCSWLVQRNMDLKFNIKSSSSSPDSRAVTCGMASLSAEKVTLDQRDYEKYSVSCQEDVTCPTAEETLPIELALEARQQNKYENYSTSFFIRDIIKPDPPKNLQMKPLKNSQVEVSWEYPDSWSTPHSYFSLKFFVRIQRKKEKMKETEEGCNQKGAFLVEKTSTEVQCKGGNVCVQAQDRYYNSSCSKWACVPCRVRS
restoration of killer response in the absence of CD4 helpers by addition to the culture: did not replace the activity of helpers
